Biological target: FUS (full-length recombinant protein; tag not told for these experiments) (UniProt P35637)
Assay: cross-linking

Substance: FUS (full-length recombinant protein; tag not told for these experiments) (from UniProt P35637 1-526) (natural protein)
- stoichiometry N: < 5

Source: publication PMC3925748
